According to patent US20230125500A1, “ANGIOSTATIN NEUTRALIZING PEPTIDES DERIVED FROM ATP SYNTHASE ALPHA SUBUNIT” (The Governors of the University of Alberta, priority 2021, published 2023):

B1: angiostatin (protein)
chain: YLSECKTGNGKNYRGTMSKTKNGITCQKWSSTSPHRPRFSPATHPSEGLEENYCRNPDNDPQGPWCYTTDPEKRYDYCDILECEEECMHCSGENYDGKISKTMSGLECQAWDSQSPHAHGYIPSKFPNKNLKKNYCRNPDRELRPWCFTTDPNKRWELCDIPRCTTPPPSSGPTYQCLKGTGENYRGNVAVTVSGHTCQHWSAQTPHTHNRTPENFPCKNLDENYCRNPDGKRAPWCHTTNSQVRWEYCKIPSCDSSPVSTEQLAPTAPPELTPVVQDCYHGDGQSYRGTSSTTTTGKKCQSWSSMTPHRHQKTPENYPNAGLTMNYCRNPDADKGPWCFTTDPSVRWEYCNLKKCSGTEA

How the values were obtained:
angiostatin kringles 1-4 = molecular target: T1, angiostatin kringles 1-4 (Homo sapiens, UniProt P00747); test: Immunoprecipitation of angiostatin K1-4 after incubation with trypsinized ATP synthase subunit α, mass spectrometry of bound peptides; type: binding; details: for abundance based on peptide spectral matches (PSMs): angiostatin-bound peptides after immunoprecipitation; for binding to angiostatin (immunoprecipitation, mass spectrometry): peptides from trypsin digest of recombinant F1F0 ATP synthase subunit α incubated with purified angiostatin kringles 1-4
T1 construct: the resulting peptides incubated with purified angiostatin kringles 1-4
Procedure: Trypsin digestion of ATP synthase subunit α. Recombinant F1F0 ATP synthase subunit α was digested with trypsin, and following heat-inactivation of trypsin the resulting peptides incubated with purified angiostatin kringles 1-4. Subsequently, the angiostatin was immunoprecipitated and submitted for mass spectroscopy analysis to identify any potential bound peptides of subunit α.

fibrinolysis = test: In vitro fibrinolysis assay in citrated human plasma; type: biochemical; details: recalcified human plasma, thrombin + tPA 1 μg/ml, 2 hours 37° C.; combined peptides each 1 μM, aprotinin 10 μM
Procedure: Fibrinolysis Assays. Citrated human plasma (platelet-free) was recalcified to a final free Ca^2+ concentration of 2.5 mM. After recalcification, plasma was incubated with a peptide 1, 2, 3, or with combined a peptides 1-3 (each 1 μM), or with negative control 8 peptide (3 μM) or with aprotinin (10 μM) as positive control for inhibiting fibrinolysis. To initiate clotting ice-cold thrombin (0.3 U/ml) was added to each well, while to initiate fibrinolysis human tissue plasminogen activator (1 μg/ml; Sigma) was added. After 2 hours incubation at 37° C. the absorbance at 405 nm was measured using a Bio-Rad iMark microplate reader and the results were expressed as percent fibrinolysis.

eNOS protein expression = test: Immunoblot of eNOS in angiostatin-treated hypoxic HMVEC-C; type: cell-based, Human; details: 48 hours hypoxic conditions, peptides tested with angiostatin
Procedure: (§1) Cell culture and hypoxia. Cardiac-derived Human microvascular endothelial cells from (HMVEC-C) were obtained from Lonza (Walkersville, Md., USA) and cultured in a humidified atmosphere at 37° C. and 5% CO2 in EGM-2 MV. Depending on the donor, the primary endothelial cells were serum starved for 4-16 h in EBM-2 and 0.5% FBS prior to exposure to hypoxic conditions. The time of serum starvation prior to treatment was titrated to induce approximately 40% apoptosis following treatment under normoxic conditions. Hypoxia was induced by exposing endothelial cells for 48 h under serum-starved conditions in a Billups-Rothenberg chamber continuously gassed with 95% N2-5% CO2.
(§2) Immunoblots. HMVEC-L lysates were subjected to 8% sodium dodecyl sulfate-polyacrylamide gel electrophoresis Blots were blocked overnight in TTBS and 5% non-fat milk and then cut at the 50 KDa across the membrane. Subsequently the >50 KDa upper membrane was incubated with either rabbit anti-human MMP-14 (MT1-MMP) (1 μg/ml) (Millipore) (Etobicoke, ONT, Canada), or mouse anti-eNOS (1:1000) (Abcam) (Toronto, ONT, Canada) for 2 h. Anti-mouse (1:10,000), or anti-rabbit (1:5000) horseradish peroxidase-conjugated antibodies were used as the secondary antibodies (Sigma, Oakville, ON, Canada). […] Blot bands were quantified using ImageJ software (Bio-Rad, Mississauga, ON, Canada) and expressed as arbitrary units of density per β-actin.

[1] = tested on: MT1-MMP protein expression; test: Immunoblot of MT1-MMP (MMP-14) in angiostatin-treated hypoxic HMVEC-C; type: cell-based, Human; details: 48 hours hypoxic conditions, peptides tested with angiostatin
Procedure: as §1, §2

MMP-2 protein expression = test: Gelatin zymography of MMP-2 in HMVEC-C lysates; type: cell-based, Human; details: 48 hours hypoxic conditions, peptides tested with angiostatin
Procedure: as §1
Gelatin zymography. Gelatin zymography was used to assess MMP-2 levels within HMVEC-C lysates. Zymography was performed using 8% SDS-PAGE with copolymerized gelatin (2 mg/ml). After electrophoresis, gels were washed 3× for 20 min in 2% Triton X-100. Next, gels were washed 2· for 20 min in developing buffer (50 mM Tris-HCl pH 7.6, 150 mM NaCl, 5 mM CaCl2), and 0.05% NaN3) and then incubated in developing buffer at 37° C. overnight. Gels were stained with 0.05% Coomassie Brilliant Blue and then destained in a 4% ethanol and 8% acetic acid solution. Gelatinolytic activity was detected as transparent bands against a blue background of Coomassie-stained gelatin. […]

HMVEC-C = test: Endothelial cell migration assay under hypoxia; type: cell-based, Human; details: hypoxia 48 hours, VEGF 10 ng/ml chemoattractant, angiostatin 600 nM; combined peptides 1 μM each
Procedure: Migration assays. 24-well plate inserts with […] pores (Falcon Corning, Tewksbury, Mass., USA) were coated with 1 mg/ml gelatin and incubated at 37° C. for 2 hours to allow gelatin to solidify. Excess gelatin was aspirated and inserts were left to dry overnight under UV light, then gently washed once with 100μl of PBS. Once approximately 80% confluent, HMVEC-C were serum starved for 8 hours in 0.5% FBS in EBM-2. Cells were trypsinized and seeded into the top chamber of the gelatin-coated inserts at a concentration of 25 000 cells/insert. Recombinant VEGF (10 ng/ml) in 0.5% FBS in EBM-2 was added to the corresponding bottom chambers to serve as a chemoattractant. HMVEC-C were treated with PBS control, angiostatin (600 nM), angiostatin (600 nM)+a peptide 1 through 3 (3 μM), angiostatin (600 nM)+negative-control 6 peptide (3 μM), and angiostatin (600 nM)+combined a peptide 1-3 (1 μM each). The system was incubated in hypoxia (95% N2, 5% CO2) for 48 hours. After incubation, the top layer of each insert was scraped gently using a Q-tip to remove the non-migrated cells. Migrated cells at the bottom of the insert were fixed in 4% formaldehyde in PBS for five minutes, followed by staining using Diffquik stain (Siemens Healthcare Diagnostics Inc., Newark, Del., USA). […] Cells were counted using ImageJ software, and expressed as migration percent of PBS control.

T1 sequence (P00747 79-466 limits assumed): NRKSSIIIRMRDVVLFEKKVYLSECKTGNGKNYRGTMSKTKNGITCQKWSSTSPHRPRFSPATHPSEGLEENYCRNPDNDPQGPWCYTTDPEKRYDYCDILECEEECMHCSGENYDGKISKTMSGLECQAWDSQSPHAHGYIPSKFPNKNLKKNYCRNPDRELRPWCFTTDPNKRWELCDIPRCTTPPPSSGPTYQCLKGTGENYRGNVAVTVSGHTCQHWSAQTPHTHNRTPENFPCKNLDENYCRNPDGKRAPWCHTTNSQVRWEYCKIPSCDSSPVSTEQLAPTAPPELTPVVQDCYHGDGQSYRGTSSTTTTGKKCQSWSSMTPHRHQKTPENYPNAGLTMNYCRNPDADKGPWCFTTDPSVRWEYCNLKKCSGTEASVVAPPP

Molecule	abundance based on peptide spectral matches (PSMs) (angiostatin kringles 1-4)	binding to angiostatin (immunoprecipitation, mass spectrometry) (angiostatin kringles 1-4)	eNOS levels (immunoblot) (eNOS protein expression)	MT1-MMP levels (immunoblot) [1]	MMP-2 levels (gelatin zymography) (MMP-2 protein expression)	also measured
TGTAEMSSILEER [Alpha peptide 1]	high abundance	bound to angiostatin	–	–	–	–
AVDSLVPIGR [Alpha peptide 3]	medium abundance	bound to angiostatin	–	–	–	–
TSIAIDTIINQK [Alpha peptide 2]	medium abundance	bound to angiostatin	–	–	–	–
aprotinin	–	–	–	–	–	inhibition of fibrinolysis (fibrinolysis): fibrinolysis inhibitor
VPTLQVLRPGLVV [delta peptide, reference compound]	–	–	failed to significantly increase	failed to significantly increase	failed to significantly increase	–
B1	–	–	significant reduction	significant reduction	significant reduction	HMVEC-C migration (HMVEC-C): decreased
